Laboratory results taken from patent US6713604 (TEXAS BIOTECHNOLOGY, dated 2004).
Bridges are numbered along the chain shown (N, C = ends). Where no end group is shown, it is not given here. [ ]: non-standard residue; d: D form. MPEG5000 = polyethyleneglycol of 5000 molecular weight, attached to the N-terminal Cys

B1: SEQ ID NO 40 (peptide)
peptide: CPEWLDVC-OH
modifications: disulfide 1-8; N-terminus assumed
SMILES: CC(C)C[C@@H]1NC(=O)[C@H](Cc2c[nH]c3ccccc23)NC(=O)[C@H](CCC(=O)O)NC(=O)[C@@H]2CCCN2C(=O)[C@@H](N)CSSC[C@@H](C(=O)O)NC(=O)[C@H](C(C)C)NC(=O)[C@H](CC(=O)O)NC1=O
notes: Disulfide cyclic peptide
B2: SEQ ID NO 18 (peptide)
peptide: Ac-CWLDVC-OH
modifications: disulfide 1-6
SMILES: CC(=O)N[C@H]1CSSC[C@@H](C(=O)O)NC(=O)[C@H](C(C)C)NC(=O)[C@H](CC(=O)O)NC(=O)[C@H](CC(C)C)NC(=O)[C@H](Cc2c[nH]c3ccccc23)NC1=O
notes: Disulfide cyclic peptide; also called Ac-Cys-Trp-Leu-Asp-Val-Cys-acid
B3: SEQ ID NO 22 (peptide)
peptide: CWLDWC-OH
modifications: disulfide 1-6; N-terminus assumed
SMILES: CC(C)C[C@@H]1NC(=O)[C@H](Cc2c[nH]c3ccccc23)NC(=O)[C@@H](N)CSSC[C@@H](C(=O)O)NC(=O)[C@H](Cc2c[nH]c3ccccc23)NC(=O)[C@H](CC(=O)O)NC1=O
notes: Disulfide cyclic peptide; also called Cys-Trp-Leu-Asp-Trp-Cys-acid
B4: SEQ ID NO 25 (peptide)
peptide: CWVDVC-OH
modifications: disulfide 1-6; N-terminus assumed
SMILES: CC(C)[C@@H]1NC(=O)[C@H](CC(=O)O)NC(=O)[C@H](C(C)C)NC(=O)[C@H](Cc2c[nH]c3ccccc23)NC(=O)[C@@H](N)CSSC[C@@H](C(=O)O)NC1=O
notes: Disulfide cyclic peptide; also called Cys-Trp-Val-Asp-Val-Cys-acid
B5: SEQ ID NO 23 (peptide)
peptide: CWIDVC-OH
modifications: disulfide 1-6; N-terminus assumed
SMILES: CC[C@H](C)[C@@H]1NC(=O)[C@H](Cc2c[nH]c3ccccc23)NC(=O)[C@@H](N)CSSC[C@@H](C(=O)O)NC(=O)[C@H](C(C)C)NC(=O)[C@H](CC(=O)O)NC1=O
notes: Disulfide cyclic peptide; also called Cys-Trp-Ile-Asp-Val-Cys-acid
B6: SEQ ID NO 20 (peptide)
peptide: CWLDFC-OH
modifications: disulfide 1-6; N-terminus assumed
SMILES: CC(C)C[C@@H]1NC(=O)[C@H](Cc2c[nH]c3ccccc23)NC(=O)[C@@H](N)CSSC[C@@H](C(=O)O)NC(=O)[C@H](Cc2ccccc2)NC(=O)[C@H](CC(=O)O)NC1=O
notes: Disulfide cyclic peptide; also called Cys-Trp-Leu-Asp-Phe-Cys-acid
B7: SEQ ID NO 21 (peptide)
peptide: CFLDVC-OH
modifications: disulfide 1-6; N-terminus assumed
SMILES: CC(C)C[C@@H]1NC(=O)[C@H](Cc2ccccc2)NC(=O)[C@@H](N)CSSC[C@@H](C(=O)O)NC(=O)[C@H](C(C)C)NC(=O)[C@H](CC(=O)O)NC1=O
notes: Disulfide cyclic peptide; also called Cys-Phe-Leu-Asp-Val-Cys-acid
B8: SEQ ID NO 26 (peptide)
peptide: CWKDVC-OH
modifications: disulfide 1-6; N-terminus assumed
SMILES: CC(C)[C@@H]1NC(=O)[C@H](CC(=O)O)NC(=O)[C@H](CCCCN)NC(=O)[C@H](Cc2c[nH]c3ccccc23)NC(=O)[C@@H](N)CSSC[C@@H](C(=O)O)NC1=O
notes: Disulfide cyclic peptide; also called Cys-Trp-Lys-Asp-Val-Cys-acid
B9: SEQ ID NO 29 (peptide)
peptide: CWLDYC-OH
modifications: disulfide 1-6; N-terminus assumed
SMILES: CC(C)C[C@@H]1NC(=O)[C@H](Cc2c[nH]c3ccccc23)NC(=O)[C@@H](N)CSSC[C@@H](C(=O)O)NC(=O)[C@H](Cc2ccc(O)cc2)NC(=O)[C@H](CC(=O)O)NC1=O
notes: Disulfide cyclic peptide; also called Cys-Trp-Leu-Asp-Tyr-Cys-acid
B10: SEQ ID NO 24 (peptide)
peptide: CWMDVC-OH
modifications: disulfide 1-6; N-terminus assumed
SMILES: CSCC[C@@H]1NC(=O)[C@H](Cc2c[nH]c3ccccc23)NC(=O)[C@@H](N)CSSC[C@@H](C(=O)O)NC(=O)[C@H](C(C)C)NC(=O)[C@H](CC(=O)O)NC1=O
notes: Disulfide cyclic peptide; also called Cys-Trp-Met-Asp-Val-Cys-acid
B11: SEQ ID NO 19 (peptide)
peptide: CYLDVC-OH
modifications: disulfide 1-6; N-terminus assumed
SMILES: CC(C)C[C@@H]1NC(=O)[C@H](Cc2ccc(O)cc2)NC(=O)[C@@H](N)CSSC[C@@H](C(=O)O)NC(=O)[C@H](C(C)C)NC(=O)[C@H](CC(=O)O)NC1=O
notes: Disulfide cyclic peptide; also called Cys-Tyr-Leu-Asp-Val-Cys-acid
B12: SEQ ID NO 28 (peptide)
peptide: CWLDLC-OH
modifications: disulfide 1-6; N-terminus assumed
SMILES: CC(C)C[C@@H]1NC(=O)[C@H](CC(=O)O)NC(=O)[C@H](CC(C)C)NC(=O)[C@H](Cc2c[nH]c3ccccc23)NC(=O)[C@@H](N)CSSC[C@@H](C(=O)O)NC1=O
notes: Disulfide cyclic peptide; also called Cys-Trp-Leu-Asp-Leu-Cys-acid
B13: SEQ ID NO 3 (peptide)
peptide: cyclo(EWLDVD)
modifications: not fully specified (residue 3)
notes: Head-to-tail cyclic lactam; also called Glu-Trp-Leu-Asp-Val-Asp
B14: SEQ ID NO 32 (peptide)
peptide: [dC]WLDVC-OH
modifications: disulfide 1-6; N-terminus assumed
SMILES: CC(C)C[C@@H]1NC(=O)[C@H](Cc2c[nH]c3ccccc23)NC(=O)[C@H](N)CSSC[C@@H](C(=O)O)NC(=O)[C@H](C(C)C)NC(=O)[C@H](CC(=O)O)NC1=O
notes: Disulfide cyclic peptide; also called dCys-Trp-Leu-Asp-Val-Cys-acid
B15: SEQ ID NO 41 (peptide)
peptide: MPEG5000-CWLDVC-OH
modifications: disulfide 1-6
notes: Disulfide cyclic peptide; also called MPEG5000-Cys-Trp-Leu-Asp-Val-Cys-acid
B16: SEQ ID NO 17 (peptide)
peptide: C[dW]LDVC-OH
modifications: disulfide 1-6; N-terminus assumed
SMILES: CC(C)C[C@@H]1NC(=O)[C@@H](Cc2c[nH]c3ccccc23)NC(=O)[C@@H](N)CSSC[C@@H](C(=O)O)NC(=O)[C@H](C(C)C)NC(=O)[C@H](CC(=O)O)NC1=O
notes: Disulfide cyclic peptide; also called Cys-dTrp-Leu-Asp-Val-Cys-acid
B17: SEQ ID NO 16 (peptide)
peptide: CSWLDVC
modifications: disulfide 1-7
notes: Disulfide cyclic peptide; also called Cys-Ser-Trp-Leu-Asp-Val-Cys
B18: SEQ ID NO 31 (peptide)
peptide: CWLDVC-OH
modifications: disulfide 1-6; N-terminus assumed
SMILES: CC(C)C[C@@H]1NC(=O)[C@H](Cc2c[nH]c3ccccc23)NC(=O)[C@@H](N)CSSC[C@@H](C(=O)O)NC(=O)[C@H](C(C)C)NC(=O)[C@H](CC(=O)O)NC1=O
notes: Disulfide cyclic peptide; also called Cys-Trp-Leu-Asp-Val-Cys-acid
B19: SEQ ID NO 35 (peptide)
peptide: [dC]EWLDVC-OH
modifications: disulfide 1-7; N-terminus assumed
SMILES: CC(C)C[C@@H]1NC(=O)[C@H](Cc2c[nH]c3ccccc23)NC(=O)[C@H](CCC(=O)O)NC(=O)[C@H](N)CSSC[C@@H](C(=O)O)NC(=O)[C@H](C(C)C)NC(=O)[C@H](CC(=O)O)NC1=O
notes: Disulfide cyclic peptide; also called dCys-Glu-Trp-Leu-Asp-Val-Cys-acid
B20: SEQ ID NO 36 (peptide)
peptide: CEWLDYC-OH
modifications: disulfide 1-7; N-terminus assumed
SMILES: CC(C)C[C@@H]1NC(=O)[C@H](Cc2c[nH]c3ccccc23)NC(=O)[C@H](CCC(=O)O)NC(=O)[C@@H](N)CSSC[C@@H](C(=O)O)NC(=O)[C@H](Cc2ccc(O)cc2)NC(=O)[C@H](CC(=O)O)NC1=O
notes: Disulfide cyclic peptide; also called Cys-Glu-Trp-Leu-Asp-Tyr-Cys-acid
B21: SEQ ID NO 33 (peptide)
peptide: CEWLDVC-NH2
modifications: disulfide 1-7; N-terminus assumed
SMILES: CC(C)C[C@@H]1NC(=O)[C@H](Cc2c[nH]c3ccccc23)NC(=O)[C@H](CCC(=O)O)NC(=O)[C@@H](N)CSSC[C@@H](C(N)=O)NC(=O)[C@H](C(C)C)NC(=O)[C@H](CC(=O)O)NC1=O
notes: Disulfide cyclic peptide; also called Cys-Glu-Trp-Leu-Asp-Val-Cys-amide
B22: SEQ ID NO 37 (peptide)
peptide: CSFLDYC-OH
modifications: disulfide 1-7; N-terminus assumed
SMILES: CC(C)C[C@@H]1NC(=O)[C@H](Cc2ccccc2)NC(=O)[C@H](CO)NC(=O)[C@@H](N)CSSC[C@@H](C(=O)O)NC(=O)[C@H](Cc2ccc(O)cc2)NC(=O)[C@H](CC(=O)O)NC1=O
notes: Disulfide cyclic peptide; also called Cys-Ser-Phe-Leu-Asp-Tyr-Cys-acid
B23: SEQ ID NO 38 (peptide)
peptide: CEFLDYC-OH
modifications: disulfide 1-7; N-terminus assumed
SMILES: CC(C)C[C@@H]1NC(=O)[C@H](Cc2ccccc2)NC(=O)[C@H](CCC(=O)O)NC(=O)[C@@H](N)CSSC[C@@H](C(=O)O)NC(=O)[C@H](Cc2ccc(O)cc2)NC(=O)[C@H](CC(=O)O)NC1=O
notes: Disulfide cyclic peptide; also called Cys-Glu-Phe-Leu-Asp-Tyr-Cys-acid
B24: SEQ ID NO 34 (peptide)
peptide: CEWLDVC-OH
modifications: disulfide 1-7; N-terminus assumed
SMILES: CC(C)C[C@@H]1NC(=O)[C@H](Cc2c[nH]c3ccccc23)NC(=O)[C@H](CCC(=O)O)NC(=O)[C@@H](N)CSSC[C@@H](C(=O)O)NC(=O)[C@H](C(C)C)NC(=O)[C@H](CC(=O)O)NC1=O
notes: Disulfide cyclic peptide; also called Cys-Glu-Trp-Leu-Asp-Val-Cys-acid

Target: T1, integrin α4β1 (human, UniProt P13612 34-1032; P05556 21-798)
T1 construct: whole, on cells; also called VLA-4; very late antigen-4
Experiment: inhibition of HL-60 cell (α4β1) binding to VCAM-IgG coated beads, fluorimetry
Procedure: The media was collected and active protein was purified by immunoprecipitation using Dynal magnetic polystyrene beads coated with goat anti-mouse IgG. Following immunoprecipitation, the beads bound cells that expressed the integrin α_4β_1 such as Ramos and HL-60.
HL-60 cells were fluorescently labeled with Calcein AM C-3099 (Molecular Probes) and resuspended in 1 ml of binding buffer (Hank's balanced salt solution, pH 7.4, 1.0 mM CaCl_2, 1.0 mM MgCl_2). The beads (10 µl, 4×10^6 beads/ml) were placed in wells of a 96-well microtiter dish with 10 µl of peptide at various concentrations. The beads were incubated with 10 µl of labeled cells (10^7 cells/ml) for 10 min at room temperature. Following immobilization of the beads onto the plastic with a magnet, unbound cells were removed by washing three times with binding buffer. The remaining bound cells were lysed in 50 mM Tris, pH 7.4, 5.0 mM EDTA, 1.0% NP-40 and quantitated by fluorimetry using a Millipore Cytofluor 2350 fluorimeter. Dose response curves were calculated and IC$50$ values determined. Alternatively, the percent adhesion was determined at a single peptide concentration for comparison among peptides.

T1 sequence (P13612 34-1032, chain 1 of 2): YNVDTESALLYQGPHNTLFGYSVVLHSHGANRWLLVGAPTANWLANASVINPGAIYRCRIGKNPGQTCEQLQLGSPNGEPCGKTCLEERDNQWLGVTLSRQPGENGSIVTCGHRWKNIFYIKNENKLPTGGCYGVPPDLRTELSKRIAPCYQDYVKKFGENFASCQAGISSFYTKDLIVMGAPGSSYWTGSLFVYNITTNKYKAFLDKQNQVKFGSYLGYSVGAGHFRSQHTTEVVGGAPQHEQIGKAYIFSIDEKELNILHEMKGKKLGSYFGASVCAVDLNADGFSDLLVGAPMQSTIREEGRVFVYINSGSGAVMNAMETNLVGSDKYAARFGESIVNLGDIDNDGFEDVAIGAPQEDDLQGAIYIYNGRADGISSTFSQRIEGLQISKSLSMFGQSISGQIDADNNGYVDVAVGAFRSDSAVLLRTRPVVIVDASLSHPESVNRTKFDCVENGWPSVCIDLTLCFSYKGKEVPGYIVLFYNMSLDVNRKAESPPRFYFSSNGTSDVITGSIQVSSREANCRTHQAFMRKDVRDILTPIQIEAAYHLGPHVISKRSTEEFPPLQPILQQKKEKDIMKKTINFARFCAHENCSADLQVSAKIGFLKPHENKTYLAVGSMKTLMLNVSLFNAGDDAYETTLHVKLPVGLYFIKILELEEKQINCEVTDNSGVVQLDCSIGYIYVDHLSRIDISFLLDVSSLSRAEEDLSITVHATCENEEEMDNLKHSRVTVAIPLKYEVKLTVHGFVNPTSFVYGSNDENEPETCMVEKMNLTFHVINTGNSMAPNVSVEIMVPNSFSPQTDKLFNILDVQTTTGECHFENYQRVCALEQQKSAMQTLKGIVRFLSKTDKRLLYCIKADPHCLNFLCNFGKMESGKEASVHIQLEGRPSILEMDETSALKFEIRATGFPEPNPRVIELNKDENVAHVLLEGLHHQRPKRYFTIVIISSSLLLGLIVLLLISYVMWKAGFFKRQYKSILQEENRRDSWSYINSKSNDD
T1 sequence (P05556 21-798, chain 2 of 2): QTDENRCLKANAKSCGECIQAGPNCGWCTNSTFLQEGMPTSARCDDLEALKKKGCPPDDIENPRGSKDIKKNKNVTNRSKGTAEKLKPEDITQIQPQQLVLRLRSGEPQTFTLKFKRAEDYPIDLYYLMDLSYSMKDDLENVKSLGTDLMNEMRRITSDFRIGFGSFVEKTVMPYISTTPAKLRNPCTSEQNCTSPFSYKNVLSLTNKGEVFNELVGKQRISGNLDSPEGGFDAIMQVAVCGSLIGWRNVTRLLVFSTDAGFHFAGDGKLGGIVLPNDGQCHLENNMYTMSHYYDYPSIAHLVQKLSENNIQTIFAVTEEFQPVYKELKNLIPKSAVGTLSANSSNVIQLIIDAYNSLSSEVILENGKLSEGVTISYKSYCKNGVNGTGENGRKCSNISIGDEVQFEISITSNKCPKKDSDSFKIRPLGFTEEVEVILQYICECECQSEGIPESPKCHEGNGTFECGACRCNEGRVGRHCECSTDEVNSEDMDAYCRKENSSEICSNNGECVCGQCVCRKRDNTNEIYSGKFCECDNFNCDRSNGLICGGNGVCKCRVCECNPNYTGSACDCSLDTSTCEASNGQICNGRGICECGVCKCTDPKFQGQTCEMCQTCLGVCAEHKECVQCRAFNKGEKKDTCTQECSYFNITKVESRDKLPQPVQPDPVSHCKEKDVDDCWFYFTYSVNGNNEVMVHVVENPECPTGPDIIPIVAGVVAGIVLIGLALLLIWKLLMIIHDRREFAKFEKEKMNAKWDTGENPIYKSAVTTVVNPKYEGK

Peptide concentration that significantly inhibits binding, < 10 µM:
B1, B2, B3, B4, B5, B6, B7, B8, B9, B10, B11, B12, B13, B14, B15, B16, B17, B18, B19, B20, B21, B22, B23, B24
